In patent US20220047684A1, “ENZYMES AND METHODS FOR PREVENTING AND TREATING […] IN ANIMALS” (Ecto Development Corporation, priority 2020, published 2022):

What was measured:
[1] = Serum analysis: cat serum plus permethrin +/- E3, HPLC; assay type: biochemical; conditions: for % permethrin control: relative to no enzyme
Protocol: The next step was to test the enzymatic hydrolysis of permethrin in feline blood (cat serum). Cat serum was acquired, permethrin was added to the serum and was assayed as a control by HPLC. After the cat serum control was analyzed three different concentrations of the enzyme were introduced to the cat serum control and then analyzed by HPLC.
Cat serum was acquired, permethrin was added to the serum and was assayed as a control by HPLC. After the cat serum control was analyzed three different concentrations of the enzyme were introduced to the cat serum control and then analyzed by HPLC.

[2] = Cypermethrin degradation, HPLC; assay type: biochemical; conditions: 50 ppm cypermethrin in 1 mL PBS with 10 μL pPytH2; 15 minutes at 37 C, 300 rpm
Protocol: 50 ppm of cypermethrin was placed in 1 mL PBS with 10 μL pPytH2, PytH2 and reacted for 15 minutes at 37 C with shaking at 300 rpm. HPLC was run on the sample after being diluted 1:1 MeOH using instrument method described above for permethrin for 10 minutes.

scuds (Hyalella azteca) = assay: Scud bioassay: scuds exposed to permethrin with or without enzyme, kill counts; assay type: in vivo; conditions: scuds exposed to permethrin plus degrading enzyme versus permethrin alone
Protocol: A standard of permethrin (CAS Number […]) was prepared and analyzed by HPLC as a control, then different concentrations of enzymatic solution were added to the standard to find an effective concentration (of pPytH2) needed to degrade the permethrin. After degradation was confirmed through HPLC analysis by the qualification and quantitation of permethrin hydrolysis byproducts, a bioassay was performed with crustaceans (scuds), who are also highly sensitive to pyrethroid toxicity. In the bioassay, scuds were exposed to two different environments. Permethrin was added to the first environment to get a scud kill count without the presence of the enzyme as a control and the next environment was evaluated by adding both permethrin and the degrading enzyme to the scud environment and kill counts were compared.
The next step was to test the enzymatic hydrolysis of permethrin in feline blood (cat serum). […] After the cat serum control was analyzed three different concentrations of the enzyme were introduced to the cat serum control and then analyzed by HPLC. […]
• 37 degree C. • 18 hr • Shanking 1000 rpm Transferred 20 μL rxn mix [4 μg] to 100 mL [containing 10 scuds] At time, 24 h and 48 h the ten scuds were scored: A=Alive and Moving actively BA=Barely Alive—Difficulty swimming away; only legs are moving D=Dead—Not moving at all The results of which are shown in FIGS. 8 and 9.

[3] = Order of pyrethroid hydrolysis efficiency of PytH2; assay type: biochemical; conditions: pyrethroid substrates
Excerpt: Activity of the enzyme: In order of hydrolysis efficiency: transpermethrin>cis-permethrin>fenpropathrin>trans-cypermethrin>cis-cypermethrin>cyhalothrin>fenvalerate>deltamethrin>bifenthrin.

[4] = Deltamethrin degradation, HPLC; assay type: biochemical; conditions: method as for permethrin; FIG. 5
Excerpt: Using the method and instruments described above for permethrin, 40% of deltamethrin was degraded by pPytH2, PytH2 esterase as shown in FIG. 5.

B1: E3: carboxylesterase PytH2 (pytH) from Sphingobium wenxiniae, amino acid SEQ. ID No. 3, DNA SEQ. ID No. 6; recombinant, His-tagged (protein, listed as Sphingobium wenxiniae)
chain: MTVTDIILIHGALNRGACYDAVVPLLEARGYRVHAPDLTGHTPGDGGHLSVVDMEHYTRPVADILARAEGQSILLGHSLGGASISWLAQHHYDKVAGLIYLTAVLTAPGITPETFVLPGEPNRGTPHALDLIQPVDEGRGLQADFSRLERLREVFMGDYPGEGMPPAEQFIQTQSTVPFGTPNPMEGRALEIPRLYEALDDVVIPIAVQRQMQKEFPGPVAVVSLPASHAPYYSMPERLAEAIADFADAPAEYRQTATKAGPDRPAGADGGRADRADLP
modifications: His tag
notes: ID No. 6; recombinant, His-tagged
Cis-permethrin (HPLC area) ([1]; 2.5 μL E3, 15 min 37 degree C.): 1624.5
Total permethrin (area) ([1]; 2.5 μL E3, 15 min 37 degree C.): 1624.5 area
Total permethrin (expected 2 ppm) ([1]; 2.5 μL E3, 15 min 37 degree C.): 0.098 ppm
Trans-permethrin (HPLC area) ([1]; 2.5 μL E3, 15 min 37 degree C.): 0
% permethrin control ([1]; 2.5 μL E3, 15 min 37 degree C.): 7.0%
Cis-permethrin (HPLC area) ([1]; 10 μL E3, 15 min 37 degree C.): 0
Total permethrin (area) ([1]; 10 μL E3, 15 min 37 degree C.): 0 area
Total permethrin (expected 2 ppm) ([1]; 10 μL E3, 15 min 37 degree C.): 0.000 ppm
Trans-permethrin (HPLC area) ([1]; 10 μL E3, 15 min 37 degree C.): 0
% permethrin control ([1]; 10 μL E3, 15 min 37 degree C.): 0.0%
% permethrin control ([1]; 10 μL E3, 15 min 37 degree C., listed as PytH2): 0.0%
Cis-permethrin (HPLC area) ([1]; 30 μL E3, 15 min 37 degree C.): 0
Total permethrin (area) ([1]; 30 μL E3, 15 min 37 degree C.): 0 area
Total permethrin (expected 2 ppm) ([1]; 30 μL E3, 15 min 37 degree C.): 0.000 ppm
Trans-permethrin (HPLC area) ([1]; 30 μL E3, 15 min 37 degree C.): 0
% permethrin control ([1]; 30 μL E3, 15 min 37 degree C.): 0.0%
Cypermethrin degradation rate [2]: 12.69 nmol/min/μg pPytH2
effect on permethrin in scud bioassay (scuds (Hyalella azteca)): hydrolyzed the toxic permethrin molecule and degraded permethrin
order of hydrolysis efficiency [3]: transpermethrin>cis-permethrin>fenpropathrin>trans-cypermethrin>cis-cypermethrin>cyhalothrin>fenvalerate>deltamethrin>bifenthrin
deltamethrin degraded [4]: 40%
